From article PMC4058850, “The Bifunctional Pyruvate Decarboxylase/Pyruvate Ferredoxin Oxidoreductase from Thermococcus guaymasensis” (Archaea, 2014)

Assays:
PfPDC/POR [1] = target: T1, PfPDC/POR (Pyrococcus furiosus, UniProt Q51804+Q51805); assay: POR activity, pyruvate- and CoA-dependent methyl viologen reduction; type: biochemical; settings: POR reaction; 80°C, pH 8.4, anaerobic; 100 μM CoASH, 5 mM pyruvate
T1 construct: gene porA; native, purified anaerobically from P. furiosus cells; no tag; dimer of heterotetramers, about 260 kDa; with Pyruvate synthase subunit PorD; Pyruvate/ketoisovalerate oxidoreductases common subunit gamma

TgPDC/POR [2] = target: T2, TgPDC/POR (Thermococcus guaymasensis, UniProt W8CQB2+W8CQR1); assay: POR activity; type: biochemical; settings: POR reaction; concentration not given
T2 construct: gene porA; native, purified anaerobically from T. guaymasensis cells; no tag; dimer of heterotetramers, 258 kDa by gel filtration; with Pyruvate synthase subunit PorD; Pyruvate/ketoisovalerate oxidoreductases common subunit gamma

PfPDC/POR [3] = target: T1, PfPDC/POR; assay: PDC activity with desulfo-CoA substituted for CoA; type: biochemical; settings: PDC reaction; 80°C, anaerobic
TgPDC/POR [4] = target: T2, TgPDC/POR; assay: PDC activity with desulfo-CoA substituted for CoA; type: biochemical; settings: PDC reaction; 80°C, anaerobic
[5] = target: bifunctional pyruvate decarboxylase/pyruvate ferredoxin oxidoreductase from Thermococcus guaymasensis, heterotetramer of PorA, PorB, PorD and Por/VorG (Thermococcus guaymasensis (endogenous in DSM 11113)) (UniProt W8CQB2); assay: SEC; native enzyme purified from T. guaymasensis (about 1 mg) on HiLoad Superdex-200 in buffer E (50 mM Tris pH 7.8, 5% glycerol, 100 mM KCl, 2 mM DTT, 2 mM SDT), 2.5 mL/min, calibrated with protein standards; SDS-PAGE of the enzyme after the column; apparent Mr 258,000
purified protein = substrate: CC(=O)C(=O)O; assay: purified protein; type: biochemical, Thermococcus guaymasensis; settings: POR (oxidative decarboxylation) reaction, 0.1 mM CoA, 1 mM MV, 0.4 mM TPP, Mg2+, pH 8.4 (optimal pH), 80°C, anaerobic
[6] = substrate: CC(=O)C(=O)O; assay: PDC activity, acetaldehyde as DNPH hydrazone by RP-HPLC; type: biochemical, Thermococcus guaymasensis; settings: PDC (nonoxidative decarboxylation) reaction, 1 mM CoA, 0.1 mM TPP, Mg2+, optimal pH (9.5), 80°C, anaerobic
Excerpt: PDC activity, acetaldehyde as DNPH hydrazone by RP-HPLC on TgPDC/POR

[7] = target: the molecule itself; assay: SEC; native enzyme from P. furiosus; HiLoad Superdex-200 in buffer E as a step of the purification; native molecular weight of approximately 260 kDa told in the discussion, how it was estimated is not told for this enzyme

T2 sequence (W8CR61 1-105 partner, one chain of several): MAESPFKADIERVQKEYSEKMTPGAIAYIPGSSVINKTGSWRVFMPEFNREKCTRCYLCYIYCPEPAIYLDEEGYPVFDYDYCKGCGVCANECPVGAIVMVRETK
T2 sequence (W8CQB1 1-185 partner, one chain of several): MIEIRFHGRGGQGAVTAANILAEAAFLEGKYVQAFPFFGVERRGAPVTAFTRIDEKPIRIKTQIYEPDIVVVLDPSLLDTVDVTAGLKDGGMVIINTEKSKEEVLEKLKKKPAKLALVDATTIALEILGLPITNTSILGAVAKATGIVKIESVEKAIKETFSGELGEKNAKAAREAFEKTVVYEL

CC(C)(COP(=O)(O)OP(=O)(O)OC[C@H]1O[C@@H](n2cnc3c(N)ncnc32)[C@H](O)[C@@H]1OP(=O)(O)O)[C@@H](O)C(=O)NCCC(=O)NCCS [coenzyme A]
POR activity, pyruvate- and CoA-dependent methyl viologen reduction (PfPDC/POR [1]): The pyruvate- and coenzyme A-dependent reduction of the methyl viologen was measured for POR activities

CCNC(=O)CCNC(=O)[C@H](O)C(C)(C)COP(=O)(O)OP(=O)(O)OC[C@H]1O[C@@H](n2cnc3c(N)ncnc32)[C@H](O)[C@@H]1OP(=O)(O)O [desulfo-CoA]
completely inhibitory (TgPDC/POR [2]): desulfo-CoA, an analogue of CoA, was completely inhibitory for the oxidation (POR) reaction | % of activity with CoA (PfPDC/POR [3]): ~ 80% | % of activity with CoA (TgPDC/POR [4]): ~ 75%

bifunctional pyruvate decarboxylase/pyruvate ferredoxin oxidoreductase from Thermococcus guaymasensis, heterotetramer of PorA, PorB, PorD and Por/VorG (from UniProt W8CQB2 1-331; W8CR61 1-105) (complex)
stoichiometry N [5]: 2

B1: TgPDC/POR (Thermococcus guaymasensis) (protein)
chain 1: MPIRTVMKANEAAAWAAKLAKPKVIAAFPITPSTLVPEKISEFVANGELDAEFIKVESEHSAISACVGASAAGVRTFTATASQGLALMHEVLFIAAGMRLPIVMAIGNRSLSAPINIWNDWQDSISERDTGWLQFYAENNQEALDLILIAYKVAEDERVLLPAMVGFDAFILTHTVEPVEIPDQELVDEFLGEYEPKHAYLASARPLTQGTLAFPAHYMEARYTVWQANENAKKVIDEVFAEFEKRFGRKYQKVEEYRTDDAEIIFVTMGSLAGTVKEYVDHLREKGIKAGAAKLTVYRPFPIEEVRELAKKAKVLALLEKNVTFSVGGALFQDFSRALINQEEKPKIVDFILGLGGRDVTFKDLDEALAIAQKALNGEKVDEVNWIGLRKEIL
chain 2: MAVRKPPITTREYWAPGHAACAGCGCAIALKLATKAFSEAMEEKYGDPNAFAIAQATGCMEVVSAVFPYTAWKVPWVHVAFENAAAAASGVEAAWKKLGRKGKILAIGGDGGTADIGMQALSGMLERRHNVVYLMYDNEAYMNTGIQRSSSTPYGAWTTTSPPGKYSIGEDKPKKWVALIAAAHQVPYVATASIGNPFDFVRKMKKAAKVDGPAFVQVHCTCPTGWKSPLEKGVEIARLAIETGVWPLFEIENGDFHNIKIQPPGGGAKVTREGGRIVAIEFKKPIEEYLKLQGRFKHLFKQPEAIDVMREQIKAMWKVLGVDVTLPKPEE
notes: native, purified anaerobically from T. guaymasensis cells; no tag; dimer of heterotetramers, 258 kDa by gel filtration; with Pyruvate synthase subunit PorD; Pyruvate/ketoisovalerate oxidoreductases common subunit gamma
Km (purified protein): 530 ± 30 µM | Vmax (purified protein): 18 µmol/min/mg | Km [6]: 250 ± 50 µM | Vmax [6]: 3.8 µmol/min/mg

B2: bifunctional pyruvate decarboxylase/pyruvate ferredoxin oxidoreductase from Pyrococcus furiosus, heterotetramer (complex)
chain 1: MPIRKVMKANEAAAWAAKLAKPKVIAAFPITPSTLIPEKISEFVANGELDAEFIKVESEHSAISACVGAAAAGVRTFTATASQGLALMHEILFIAAGMRLPIVMAIGNRALSAPINIWNDWQDTISQRDTGWMQFYAENNQEALDLILIAYKVAEDERVLLPAMVGFDAFILTHTVEPVEIPDQEVVDEFLGEYEPKHAYIDPARPITQGSLAFPAHYMESRYTVWEAMERAKKVIDEAFAEFEKKFGRKYQKIEEYKTEDADIIFVTMGSLAGTLKEWIDKKREEGYKVGAAKITVYRPFPVEEIRELAKKAKVLAFLEKNITIGLYGAVFTDASAALINESEKPLMVDFIVGLGGRDVTFNQLDEALEIAEKALKEGKVENPINWIGLRWELVK
chain 2: MAVRKPPITTREYWAPGHAACAGCGCATALRLATKALSEAMEEKYGDPNAFAIAHATGCMEVVSAVFPYTAWKAPWIHVAFENAAAVASGIEAAWKKLGRKGKILAIGGDGGTADIGLQALSGMLERWHNVLYLMYDNEAYMNTGIQRSSSTPYGAWTTTSPPGKYSVGEDKPKKWVALIAAAHQIPYVATASIGNPLDFVRKIKKAGKIDGPAFVQVLCTCPTGWRSPLEKGVEIARLAIETGIWPLFEIENGDIWNIKIQPPGGGAKVYKEGNRVVRIEFKKPIEEYLKLQGRFKHLFKRPEAIEELRNQVKAMWKVLGVEAILPRPEE
chain 3: MIEVRFHGRGGQGAVTAANILAEAAFLEGKYVQAFPFFGVERRGAPVTAFTRIDNKPIRIKTQIYEPDVVVVLDPSLLDAVDVTAGLKDEGIVIVNTEKSKEEVLEKLKKKPKKLAIVDATTIALEILGLPITNTAILGAVAKATGLVKIESIEEAIKDTFSGELGEKNARAAREAYEKTEVFEL
chain 4: MAESPFKADIERAQKELSEKMTPGAIVYIPGSSVINKTGSWRVFKPEFNRDKCVRCYLCYIYCPEPAIYLDEEGYPVFDYDYCKGCGICANECPTKAIEMVREVK
notes: alpha subunit (PorA) of pyruvate ferredoxin oxidoreductase, Pyrococcus furiosus; beta subunit (PorB) of pyruvate ferredoxin oxidoreductase, Pyrococcus furiosus; gamma subunit (Por/VorG) of pyruvate ferredoxin oxidoreductase, Pyrococcus furiosus; delta subunit (PorD) of pyruvate ferredoxin oxidoreductase, Pyrococcus furiosus; One heterotetramer (one copy of each subunit); the native enzyme is …
stoichiometry N [7]: 2
